The values below come from article PMC12796366.

The target in test [1] is EYFP (Aequorea victoria). The experiment in a line: AUC; sedimentation velocity, 0.5 mg/mL of the isolated fluorescent protein, 25 mM phosphate buffer pH 6.2 or 7.4, 150 mM NaCl, 1% glycerol, 1 mM MgCl2, 0.5 mM beta-mercaptoethanol (legend also: 50 mM KCl), 42,000 rpm, 20 °C, interference detection, c(s) fit with Sedfit.
The target in test [2] is EGFP (Aequorea victoria). Described as above.

In test [1], EYFP showed a stoichiometry N of 2. EGFP displayed a stoichiometry N in test [2] of 2.
